# Data reported in the nanobody polyreactivity screen of Harvey et al. (2022).
# Test: yeast display, Sf9 membrane polyspecificity reagent, FACS + sequencing; frameworks hold sequencing errors
# Summary of the method: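 Nanobodies from a synthetic yeast display library (Saccharomyces cerevisiae BJ5465), induced 36–48 hours with galactose, were stained 1 hour at 4 °C with 10% biotinylated, detergent-solubilized Sf9 membrane reagent, enriched on streptavidin microbeads, then FACS-sorted. Anti-HA (expression) and streptavidin (reagent binding) fluorescence set low and high (top ~1%) gates. Polyreactivity labels come from the gate of origin. Genes were colony-PCR amplified, MiSeq 2 × 250 sequenced and filtered by CDR length.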
row,Sequence,polyreactivity (PSR sort gate)
1,QVQHVESGGGLVQAGGSLRLSCAASGSTFARYGLGWYRQAPGKERELVASLTYTGGRTYADSVKGRFTFSRDNAKNTVYLQMNSLKPEDTAVYYCAARYRLWGQGTQVTVSS,low polyreactivity
2,QVQLVESGGGLVQAGGSLRLSCAASGFDGYAMGWYRQAPGKERELVAASSWSGSRTYYADSVKGRFTISRDNAKNTVYLQMNSLKPEDTAVYYCNAVLRYSIYPSYSFSYVGYYYWGHGTQVTVSS,high polyreactivity
3,QVQLVESGGGLVQAGGSRRLSCAASGRTFVSNVMGWYRPAPGKDRELVAAINWSGDSTYYADSVKGRFTISRDNAKNTVYLQMNSLKPEDTAGYYCAVQGGYFDTWDGDYWGQGTQVTVSS,low polyreactivity
4,QVQLVESGGGLVQAGGSLRLSCAASGSIFSTYAMGWYRQAPGKERELVASINYSGGSTYYADSVKGRFTISRDNAKNTVYLQMNSLKPEDTAVYYCNTGPFVGFDYWGQGTQVTVSS,low polyreactivity
5,QVQLVESGGGLVQAGGSLRLSCAASGIIFGIYAMGWYRQAPGKEREFVAAISWSDGSTRYADSVKGRFTISRDNAKNTVYLQMNCLKPEDTAVYYCNTDIGPLDFGEYSYPDDYWGQGTQVTVSS,low polyreactivity
6,QVQLVESGGGLVQAGGSLRLSCAASGFTFRIYAMGWYRQAPGKERELVAAITSGGRTYYADSVKGRFTISRDNAKNTVYLQMNSLKPEDTAVYYCAALYFTRDRYDYWGQGTQVTVSS,high polyreactivity
7,QVQLVESGGGLVQAGGSLRLSCAASGFTFRSNAMGWYRQAPGKERELVAAISYSGDSTYYADSVKGRFTISRDTAKNTVYLQMNSLKPEDTAVYYCAADGYDQWGRVGVYLIWTSYDYWGQGTQVTVSS,high polyreactivity
8,QVQLVESGGGLVQAGGSLRLSCAASGYILWNAMGWYRPAPGKERELVAAIRFRGGSTSYADSVKGRFTISRDNAKNTVYLQMNSLKPEDTAVYYCNARWWVIRPYQRHDYWGQGTQVTVSS,low polyreactivity
9,QVQLVESGGGLVQAGGSLRLSCAASGRTFTVNAMGWYRPAPGKERELVAAISGRSGRTSYADSVKGRFTISRDNAKNNVYLQMNSLKPEDTAVYSCNASGGYSTGSRFEYWGQGTQVTVSS,high polyreactivity
10,QVQLVESGGGLVQAGGSLRLSCAASGSIFDLNAMGWYRQAPGKERELVAAISKSGGSTYYADSVKGRFTISRDNAKNTVYLQMNSLKPEDTAVYYCAKDRKYHLSGGYDYWGQGSQVTVSS,low polyreactivity
11,QVQLVESGGGLVQAGGSLRLSCAASGSIFFPNAMGWYRQAPGKERELVAAITSTSTNYADSVKGRCTISRDNAKNTVYLQMNSLKPEDTAVYYCAADGEFRRAWYEGDYWGQGTQVTVSS,low polyreactivity
12,QVQLVESGGGLVQAGGSLRLSCAASGNIFSYNAMGWYRQAPGKEREFVAAITFSSDRTYYADSVKGRFTISRDNAKNTVYLQMNSLKPEDTAVYYCAADTRYINYKRYYYWGQGTQVTVSS,high polyreactivity
13,QVQLVESGGGLVQAGGSLRLCCAASGSTFGYYAMGWYRQAPGKDRELVAVITWNGGGTYYADSVKGRFTISRDNAKNTVYLQMNSLKPEDTAVYDCAADASLYTDEYDYWGQGTQVTVSS,low polyreactivity
14,QVQLVESGGGLVQAGGSLRLSCAASGSIFPYNAMGWYRQAPGKERELVATISSGGSTNYADSVKGRFTISRDNAKNTVYLQMNSLKPEDTAVYYCATDDFWNVKFYAYYPEFDYWGQGTQVTVSS,low polyreactivity
15,QVQLVESGGGLVQAGGSLRLSCAASGRIFGNNVMGWYRQAPGKERELVASINYSGGSTYYADSVKGRFTISRDNAKNTVYLQMNSLKPEDTAVYYCARSYGWYPWRTSYTVGFYYWGQGTQVTVSS,high polyreactivity
16,QVQLVESGGGLVQAGGSLRLSCAASGFIFAYYAMGWYRQAPGKERELVAAITNSGGSTYYADSVKGRFTISRDNAKNTVYLQMNSLKPEDTAVYYCNALHRIRYTPSSRYDYWGQGTQVTVSS,low polyreactivity
17,QVQLVESRGGLVQAGGSLRLTCAASGYTFVYNGMGWYRQAPGKERELVAAFRRRTGTTYYADSVKGRFTISRDNAKNTVYLQMNSLKPEDSSVYYSAATGFWCYDWGQGSQVTVSS,high polyreactivity
18,QVQLVESGGGLVQAGGSLRLSCAPSGFIFGHNTMGWYRQAPGKECELVARITSSGGRTYYADSVKGRFTISRDNAKNTVYLQMNSLKPLDSAVYYCAAVSPNTAYDYWGQGTQVTVSS,high polyreactivity
19,QVQLVESGGGLVQAGGSLRLSCAASGSTLWGYVMGWYRQAPGKERELVAVISKSGGSTYYADSVKGRFTISRDNAKNTVYLQMNSLKPEDTAVYYCATRGPYRSDWGQGTQVTVSS,high polyreactivity
20,QVQLVESGGGLVQAGGSLRLSCAASGFIFDRYAMGWYRQAPGKERELVAAISWTGGSTYYADSVKGRFTISRDNAKNTVYLQMNSLKPEDTAVYYCAVEYSLVYWSGVVDLGYWGQGTQVTVSS,high polyreactivity
21,QVQLVESGGGLVQAGGSLRLSCAASGYTFLDYAMGWYRQAPGKERELVAAINSGGSTYYADSEKGRFTISRDNAKNTVYLQMNSLKPEDTAVYYCAVDPPYSYSLSRYGYWGQGTQVTVSS,low polyreactivity
22,QVQLVESGGGLVQAGGSLRLSCAASGFIFAYNAMGWYRQAPGKEREFVAAINSGGDSTYYADSVKGRFTISRDYANNTVYLQMNSLKPEDTAVYSCAAVIGNKRYYYWGQGTQVTVSS,low polyreactivity

row,Sequence,polyreactivity (PSR sort gate)
1,QVQLVESGGGLVQAGGSLRLSCAASGITFGRNAMGWYRQAPGKERELVAAISRGGSTNYADSVKGRFTISRDNAKNTVYLQMNSLKPEDTAVYYGNALSWPHGSWIPIHRRYGYWGQGTQVTVSS,high polyreactivity
2,QVQLVESGGGLVQAGGSLRLSCAASGSTIYPNAMGWYRQAPGKERELVARISRTGGSTYADSVKGRFTISRDNAKNTVYLQMNSLIPEDSAVYYCARSYASFSWLRTKEPYEYWGQGTQVTVSS,low polyreactivity
3,QVQLVESGVGLVQAGGSLRLSCAASGSIFESYAMGWYRQAPGKVRELVADITYDGGITYYADSVKGRFTISRDNAKNTVYLQMNSLKPEDTAVYYCAKQYYFTFWGQGTQVTVSS,low polyreactivity
4,QGQLVESWGGLVQAGGSLRLICAASGFNLGRYAKGWYRQAPGKERELVAAISIGGRTNYADSVKERFTISRDNSKTSVYLHLKSLKPEVTAVYYSAADVRGSAYTTGDYWGQGTQVTVTS,low polyreactivity
5,QVQLVESGGCLVQAGGSLRLSCAASGSIFLTYAMGWYIQAPGKERELVASSTGGGSTNYADSVKGRFTSSRDNAKNTVYLQRNSLKPEDTAVYYCAKKAIVSDQWDKYDYWGQGTQVTVSS,low polyreactivity
6,QVQLQESGGRLVQAGGSLRLSCAPSGDILEADDMGWYRQAPGKERELVASITDGGSTNCADSMKGRSTICRDNAKITVYLQMNSLKPEDTAVYYCAADAWDLYSDGQEYNYWGQGTQVTVSS,high polyreactivity
7,QVQLVESGGGLVQAGGSLRLSCAASGFIFWSYAMGWYRQAPGKERELVAVITSGASTYYADSVKGRFTISRDNAKNTVYLQMNSLKPEDTAVYYSAAEYWVPAWKFGYEYWGQGTQVTVSS,high polyreactivity
8,QVQLVESGGCLVQAGGSLRLSSAPSGSTFPVNAMGWYRQAAGKERELVAAITYRDGDTYYADSVKGRFTISRDYAKNTVYLQMNSLKPEDTAVYYCNADVGRHGKNSHMDYWGHGTQVTVSS,low polyreactivity
9,QVQLVESGGGLVQAGGSLRLSCAASGNTFYYYAMGWYRQAPGKERELVAAIRRSGGTTYYADSVKGRFTISRDNAKNTVYLQMNSLKPEDTAVYYCAARVYRSYANVEGNYWGQGTQVTVSS,high polyreactivity
10,QVQLVESGGGLVQAGGSLRLSCAASGFTFVRNTMGWYRQAPGKERELVAAISRSGGSTYYADSVKGRFTISRDNAKNTVYLQMYSLKPEDTAVYYCNAYRYVHYDWGQGSQVTVSS,high polyreactivity
11,QVQIEESRGGLVQAGGSLRLSCAASGRIIDRYAMGWSRPAPRKERELVAAISSGGRTYYADSVKGRFTISRDNAKNTVYLQMHSLKPEDTAVYYCNAVAYSLSGYNSWGQGTQVTVSS,high polyreactivity
12,QVQLVESGGGLVQAGGSLRLSCAASGSIFRYNAMGWYIQAPGKERELVAAISWNGARTYYADSVKGRFTISRDNAKNTVYLQMNSLKPEDTAVYYCNAGTFTRRRGLDYWGQGTQVTVSS,low polyreactivity
13,QFQLVQSGGGLVQAGGSLRLSCAASGFILEPNAVGWYRQAPGKERELVATISYSGGGTYYADSVKGRFTISRDNAKNTVYLQLNCLKPEDTAVYYCAVDWYYYVWWYDYWGQGTHVTVSS,high polyreactivity
14,QVQLVESGGGLVQAGGSLRLSCAASGFTFNDNAMGWYRQAPGKERELVAAITYGGSTYYADSVKGRFTISRDNAKNTVYLQMNSLKPEDTAVYYCARDLSAGPGRDYWGQGTQVTVSS,low polyreactivity
15,QVQLVESGGGLVQAGGSLRLSCAASGFTFDENAMGWYRQAPGINYSGASTYYADSVKGRFTISRDNATNTVYLQMNSLKPEDTAVYYCAAEVVAQMNYWGQGTQVTVSS,low polyreactivity
16,QFQLVESGGGLVQAGGSLRLSCAASGRIFIIYAMGWYRQAPGKERELVAAINRGATTNFADSVKGRFTISRDNAKNTVYLQMNSLKPEDTAVYYCAACSGPSLSRFLRYANDYWGQGTQVTLSS,high polyreactivity
17,QVQLVESGGGLVQAGGSLRLSCAASGSTFAPYAMGWYRQAPGKERELVAAIRSSGGSTYYADSVKGRFTISRDNAKNTVYLQMNSLKPEDTAVYYCSDDYYTSADYVDYYYWGQGTQVTVSS,low polyreactivity
18,QVQLVESGRGLVQAGGSLRLSCAASGFTFDGNAMGWYRQAPGIERELFARITWDDGSTYYADSVKGRFTISRDNAKNTVYLQMNSLNPEDTAVYYCAAEWCTDGYQVLPVDYDYWGQGTQVTVSS,low polyreactivity
19,QVQLVESGGGLVQAGGSLRLSCAATGRIFTRNAMGWYRQAPGKERELVAAISYSGGTTYYADSVKGRFTISRDNAKITVYLQMNSLKPDDTAVYDCAALRPTQRYFTYDYWGHGTQVTVSS,high polyreactivity
20,QVQLVESGGGLVQAGGSLRLSCAASGFTFARNAMGWNRQAPGKERELVASITQRGGSTNYADSVKGRFTISRDNAKNTVYFQLNSLKPEDTAVYYCNKASQLYYIQGTYSYGYWGQGSQVTVSS,low polyreactivity
21,QVQLVESGGGLVQAGGSLRLSCAASGSILFTNAMGWYRQAPGKERELVAAISSGGSTYYADSVKGRFTISRDNAKNTVYLQMNSLKPEDTAVYYCAADQLNVGREYVEYDFWGQGTQVTVSS,low polyreactivity
